Data as given in the supplement of paper PMC12042874.
± gives the uncertainty stated by the source.

Assay: amyloid nucleation score (Sup35N fusion, yeast selection) (log enrichment); library NNK1; higher = more nucleation; inactive = no reads after selection
How it was run: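 DiMSum was used to calculate nucleation scores as log enrichment of output over input reads, centred on the mode score of non-aggregating sequences. Sequences with fewer than 100 input reads were not scored. Input and output came from Illumina sequencing of plasmid inserts in psi-negative yeast expressing peptides of 20 random codons fused to Sup35N, induced 24 hours with 100 μM copper sulfate and then grown 7 days at 30°C on medium lacking adenine and uracil.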

Substance	amyloid nucleation score
SYTSRPYFTNIYVDYWFMVC	6.216 ± 0.05
SYVDRVLSSRSRWMKIVELN	0.083 ± 0.44
SYVSKSYLYKRGSELQAVLQ	-0.157 ± 0.65
SYVVTVLHNWVWEEGDLEYE	4.36 ± 0.11
SYYIC	0.583 ± 0.41
SYYQKCNAKNIF	-0.576 ± 0.4
TAAYRFNESVHVSNSRFMVH	0.334 ± 0.42
TAGRVITSCWQVLILLVNCG	-0.605 ± 0.54
TALRLTSSSIKIATQVDLKF	2.06 ± 0.16
TASHFGNKWV	0.352 ± 0.32
TASNHVVLSHPDSGILGIRA	-0.278 ± 0.42
TASRYLVVRN	0.875 ± 0.43
TCCNDDKRYIWCIYSRAKMN	-1.55 ± 0.42
TCFVVLYTKMNVFECFDLQV	-0.109 ± 0.51
TCGRGHVTRGYWGTMCGCNG	1.06 ± 0.72
TCLISCRLPDKGHGSVT	-0.069 ± 0.44
TCQFFRLSNRILQGDYSILM	-0.342 ± 0.48
TCRKFKYPL	0.372 ± 0.29
TCTFPKVIQSYAGRLAMPGY	-0.135 ± 0.58
TCVGFSGVGKGNSSIKVKEA	0.351 ± 0.42
TCWVGYYVCW	-0.336 ± 0.53
TDIFSNISYQSGQPATIDYH	0.176 ± 0.69
TDIVVCSCDGFWKYSYIGGL	2.18 ± 0.12
TDMLMLIMIRVSLIGRRTFQ	inactive
TDNTSFELYIWTDAFLKQTT	0.208 ± 1
TDNTVVVMHWFHTFSPGARK	2.08 ± 0.28

Substance	amyloid nucleation score
TDPLSYTFVTSPVMVTRGSS	-0.942 ± 0.52
TDWARTRSQRHVLHDSPAGL	-0.452 ± 1.4
TEGLKVTLIHTTPLFCP	0.239 ± 0.42
TEGYVFKCVGKMFLFRFSFA	-0.114 ± 0.36
TEIIFYLVYGWLTFRILGYN	-0.705 ± 0.43
TEIILYSILLSMYDLMFVVI	0.268 ± 1.4
TEKTVRCDLTWQTHLLLCFA	-0.369 ± 0.83
TERDCRCSFGTVPMCSMGNW	0.595 ± 0.34
TERDLYDILTKTMGIGVSRW	-0.544 ± 0.57
TETQECVSRYVILGGGAGVS	0.271 ± 0.71
TFASTS	0.002 ± 0.36
TFEYDT	0.332 ± 0.61
TFFRTTCTICCM	5.01 ± 0.053
TFGNLRMDVRAPTRFKDLLK	1.27 ± 0.47
TFIVQPFLTENPIASRFESA	0.063 ± 0.38
TFPGDGRFPKVSKVYDPVLE	inactive
TFQCCLDVCASVC	0.273 ± 0.46
TFQHCLRYWPNHSRLNSCRL	0.155 ± 0.25
TFRGNRIINQNWGYHCMWWC	5.733 ± 0.056
TFSDFIQKGWRFIFKYPFRC	0.686 ± 0.35
TFSFTAYNPCFDSFSTVGLS	-0.147 ± 0.45
TFSTGRACLNEVRNVGMFKM	0.75 ± 0.54
TFSYILDWFEVSLTHRGALI	0.192 ± 0.41
TFTPWKVDVLSRYRMQGCAQ	0.556 ± 0.47
TFWYLLNCVSRLFNF	-0.013 ± 0.57
TFYLFSRGSSLEIWG	5.72 ± 0.059

Substance	amyloid nucleation score
TFYNFAMSFKEVCCCMSWRG	7.143 ± 0.058
TFYSCHP	1.49 ± 0.37
TGCLVTWNIENLLRHQTFAM	0.227 ± 0.38
TGFLR	0.12 ± 0.4
TGIYYWNRKLGRYRLHVHVV	-0.15 ± 0.97
TGPDSISAYQHLFNCS	1.64 ± 0.54
TGRMGLTNRSEEFLSFLADS	-1.45 ± 0.89
TGSLWRLRTSACWVLNHRKS	-1.09 ± 1
TGWNGNLGSVVAE	-0.375 ± 0.5
TGYRFLSIIIAAADSDCELS	-0.706 ± 1.2
TGYVVVMVYCWSCLGGQSVA	0.119 ± 0.89
THCCSRYTPERVC	0.47 ± 0.4
THCLDCVPMNRVDNRCETFS	0.028 ± 0.36
THLVAPRSWLFIGPCRTKAS	0.385 ± 0.89
THQARVLNNVRALRSTFALL	2.5 ± 0.12
THSRFSYGVVNR	0.683 ± 1
THYNAGSCKMLNQAPFHRIS	-0.352 ± 0.33
TICVYSG	0.008 ± 0.49
TIGASKFMICWTDSFHLQSQ	3 ± 0.12
TIGFTHYCCSFKS	-1.23 ± 0.52
TIKEGSLITTDAKYLMGMMK	2.03 ± 0.19
TIKMDTQVLVYIRKRNKYCW	-0.746 ± 0.79
TILVNKRR	-1.28 ± 0.65
TILYVVARYF	-0.004 ± 0.35
TIMVVWCSGKDGSQVTWMQF	0.324 ± 0.34
TIRNMMMYYGSSKVSYRMNS	0.587 ± 0.22

Substance	amyloid nucleation score
TISLL	0.13 ± 0.43
TISLLTHVFLDVLWCGR	-0.779 ± 0.61
TIVLLNCISIRLSIRFMFIP	-0.251 ± 1
TIVSGTRSYNLHRSILLLHL	1.5 ± 0.23
TIWFAF	-0.128 ± 0.64
TKLAY	0.445 ± 0.49
TKLKNWGLNLGMASGNQSDR	-0.725 ± 0.45
TLAGRCINDCILEGDMSRCF	2.18 ± 0.57
TLCPLDFHRDTARELCPRGV	0.049 ± 0.4
TLCQFSSARACYAWVVFPTY	1.19 ± 0.21
TLDKDLDMGRP	0.625 ± 0.56
TLFLKDLSLLAFEFPLNISA	-0.507 ± 0.37
TLGTSGTSSV	-0.544 ± 0.49
TLHKFCLSGVHSFVGVTNST	0.06 ± 0.46
TLIIGYRA	0.964 ± 0.51
TLLIMLLYKSTILCVQPDLM	0.032 ± 0.6
TLLSNWVEMNPLYFMLDLPY	0.225 ± 0.48
TLNGFPLSISTANCEVRYDK	0.005 ± 0.9
TLNKARSDYFLKRSSE	-0.025 ± 1
TLRHALLRQTLSNLRQDGV	-0.009 ± 0.3
TLSGVYTFCMFLVWVDSASG	0.843 ± 0.62
TLVQCVSWISGSDKSHRMTI	-1.52 ± 2.7
TLVVGMRLDNHDHA	1.14 ± 0.21
TMAFVKLLNGSGNLEILKFS	0.785 ± 0.44
TMIGILWCSYINVALYSGGL	1.22 ± 0.28
TMLLDAYHEFKWANTNLFWL	-0.263 ± 0.93

Substance	amyloid nucleation score
TMSSSNQSQMFPSVIYSEGH	-0.209 ± 0.9
TNLLSLMMFDSKCIISEGIM	-0.567 ± 1.7
TNNSWCFFLRLGYT	5.05 ± 0.076
TNPYSWNLYCGFLNTDWVV	0.787 ± 0.85
TNRVTGSLWDEVWSDPGPEC	-1.28 ± 0.8
TNSFSSSLRMV	0.076 ± 0.88
TNWAVKGWAVECRRHSGPNT	1.45 ± 0.79
TNWVWELL	-0.544 ± 1.9
TNYQRIQHA	-0.903 ± 2.4
TPSIYRNVCDIEGLLSSRYL	0.36 ± 0.54
TPTTLKDYYPRAGNINRMTY	-0.15 ± 0.28
TPYLDFI	1.12 ± 0.56
TQKHCY	0.326 ± 0.33
TQVWKPLHKTSLHYSDREVS	-0.111 ± 0.38
TRFNTSEDHSLDNIEA	-0.542 ± 0.93
TRFVVVVMIISQLRCLLCDM	0.61 ± 1
TRISFRKGV	-0.54 ± 0.5
TRKPEPINPQSIWSTVLQHE	0.54 ± 0.48
TRLSRERINRDWEREGCLTP	0.798 ± 0.81
TRLVVLRSW	1.14 ± 0.98
TRNSDASGNCCVTGRDV	-0.849 ± 0.45
TRNVMFINVALHFSNLVGWC	4.21 ± 0.12
TRRFR	-0.181 ± 0.41
